Columns and labels:
Assay type in all cases: biochemical
Atr-2 protein = molecular target: T1, Atr-2 protein (Homo sapiens, UniProt Q96Q15); experiment: ATR-2 kinase assay, autophosphorylation (immunoprecipitated FLAG-tagged Atr-2 fragment from 293T cells, 32P-ATP, P81 paper); conditions: immunoprecipitate from transfected 293T cells, 30° C. for 30 min
T1 construct: a region containing the putative kinase domain was subcloned into the mammalian expression vector, pCIneo; made in house; host or cells: 293T cells (transient transfection, anti-FLAG M2 immunoprecipitate on protein A beads)
Protocol: (§1) After 48 hr, cells were harvested and lysed in 0.5 ml lysis buffer (Example 6), and the lysates were precleared by incubation with 50 μl protein A beads for 2 hr at 4° C. The supernatant was immunoprecipitated with 6 μg anti-M2 antibody for one hr at 4° C. and the sample was divided into five aliquots. One hundred μl of the mixture was combined with 10 μl protein A beads for three hr at 4° C., after which the beads were washed twice with lysis buffer and three times in kinase buffer containing 10 mM HEPES, pH 7.4, 10 mM MnCl2, 50 mM NaCl, 10 mM MgCl2, and 5 mM DTT.
(§2) In the kinase assay, 10 μl protein A beads was mixed with 10 μl PKA and PKC inhibitors from a p79^S6 kinase assay kit (Upstate Biotechnology Inc., Lake Placid, N.Y.) and 10 μl ATP mixture: containing kinase buffer (above) with 10 mM ATP, 3 μCi ^32P-ATP, plus or minus 6 μl myelin basic protein as substrate. Reactions were incubated at 30° C. for 30 min and 20 μl of the reaction mixture was spotted onto P81 paper. The P81 paper was washed three times in 150 mM phosphoric acid and dried, and Cerenkov radiation measured.

myelin basic protein = experiment: ATR-2 kinase assay with exogenous substrate myelin basic protein; conditions: immunoprecipitate from transfected 293T cells, 30° C. for 30 min, 32P-ATP
Protocol: as §1, §2

histone H1 = experiment: ATR-2 kinase assay with substrate histone H1
PHAS-1 = experiment: ATR-2 kinase assay with substrate PHAS-1

B1: 73 kDa Atr-2 truncated protein: FLAG-tagged truncated human Atr-2 containing the putative kinase domain, expressed from pCIneoFLAGATR2 in 293T cells (protein)
chain: MLVAELRRVTVLWDELWLGVLLQQHMYVLRRIQQLEDEVKRVQNNNTLRKEEKIAIMREKHTALMKPIVFALEHVRSITAAPAETPHEKWFQDNYGDAIENALEKLKTPLNPAKPGSSWIPFKEIMLSLQQRAQKRASYILRLEEISPWLAAMTNTEIALPGEVSARDTVTIHSVGGTITILPTKTKPKKLLFLGSDGKSYPYLFKGLEDLHLDERIMQFLSIVNTMFATINRQETPRFHARHYSVTPLGTRSGLIQWVDGATPLFGLYKRWQQREAALQAQKAQDSYQTPQNPGIVPRPSELYYSKIGPALKTVGLSLDVSRRDWPLHVMKAVLEELMEATPPNLLAKELWSSCTTPDEWWRVTQSYARSTAVMSMVGYIIGLGDRHLDNVLIDMTTGEVVHIDYNVCFEKGKSLRVPEKVPFRMTQNIETALGVTGVEGVFRLSCEQVLHIMRRGRETLLTLLEAFVYDPLVDWTAGGEAGFAGAVYGGGGQQAESKQSKREMEREITRSLFSSRVAEIKVNWFKNRDEMLVVLPKLDGSLDEYLSLQEQLTDVEKLQGKLLEEIEFLEGAEGVDHPSHTLQHRYSEHTQLQTQQRAVQEAIQVKLNEFEQWITHYQAAFNNLEATQLASLLQEISTQMDLGPPSYVPA
modifications: left off: small tags and cut ends
notes: FLAG-tagged truncated human Atr-2 containing the putative kinase domain, expressed from pCIneoFLAGATR2 in 293T cells
kinase activity: phosphorylation of the Atr-2 protein itself (Atr-2 protein): able to phosphorylate
kinase activity: phosphorylation of exogenous myelin basic protein substrate (myelin basic protein): able to phosphorylate
kinase activity: phosphorylation of histone H1 (histone H1): did not phosphorylate
kinase activity: phosphorylation of PHAS-1 (PHAS-1): did not phosphorylate
